From US7063965 (Regeneron, dated 2006)

What was measured:
[1] = molecular target: T1, rat TIE-2 receptorbody (entire extracellular portion of the rat TIE-2 receptor fused to human IgG1 Fc) (rat; human, UniProt A0ABK0L6J5 19-740); assay: SPR (BIAcore), >50x concentrated conditioned medium over immobilised TIE-2 RB
T1 construct: extracellular domain; also called TIE-2 RB; r TIE-2 ecto/h IgG1 Fc; not shown: human immunoglobulin gamma-1 constant region (IgG1 Fc), from the hinge region to the carboxy-terminus
Protocol: Purified TIE-2 RB was covalently coupled through primary amines to the carboxymethyl dextran layer of a CM5 research grade sensor chip (Pharmacia Biosensor; Piscataway, N.J.). The sensor chip surface was activated using a mixture of N-hydroxysuccinimide (NHS) and N-ethyl-N'-(3-dimethylaminopropyl)carbodiimide (EDC), followed by immobilization of TIE-2 RB (25 µg/mL, pH 4.5) and deactivation of unreacted sites with 1.0 M ethanolamine (pH 8.5). A negative control surface of the EHK-1 receptorbody was prepared in a similar manner.
The running buffer used in the system was HBS (10 mM Hepes, 3.4 mM EDTA, 150 mM NaCl, 0.005% P20 surfactant, pH 7.4). […] Aliquots of 40 µL were injected across the immobilized surface (either TIE-2 or EHK-1) at a flow rate of 5 µL/min and the receptor binding was monitored for 8 min. The binding activity (resonance units, RU) was measured as the difference between a baseline value determined 30 s prior to the sample injection and a measurement taken at 30 s post-injection. […]
The instrument noise level is 20 RU; therefore, any binding activity with a signal above 20 RU may be interpreted as a real interaction with the receptor. […] For the same samples assayed on a EHK-1 RB immobilized surface, the measured activities were less than 35 RU. […]

[2] = molecular target: TIE-2 receptor on ABAE (Adult Bovine Arterial Endothelial) cells (bovine, UniProt Q06807 23-1125); assay: cell-based or functional assay
TIE-2 receptor on ABAE (Adult Bovine Arterial Endothelial) cells, sequence (Q06807 23-1125): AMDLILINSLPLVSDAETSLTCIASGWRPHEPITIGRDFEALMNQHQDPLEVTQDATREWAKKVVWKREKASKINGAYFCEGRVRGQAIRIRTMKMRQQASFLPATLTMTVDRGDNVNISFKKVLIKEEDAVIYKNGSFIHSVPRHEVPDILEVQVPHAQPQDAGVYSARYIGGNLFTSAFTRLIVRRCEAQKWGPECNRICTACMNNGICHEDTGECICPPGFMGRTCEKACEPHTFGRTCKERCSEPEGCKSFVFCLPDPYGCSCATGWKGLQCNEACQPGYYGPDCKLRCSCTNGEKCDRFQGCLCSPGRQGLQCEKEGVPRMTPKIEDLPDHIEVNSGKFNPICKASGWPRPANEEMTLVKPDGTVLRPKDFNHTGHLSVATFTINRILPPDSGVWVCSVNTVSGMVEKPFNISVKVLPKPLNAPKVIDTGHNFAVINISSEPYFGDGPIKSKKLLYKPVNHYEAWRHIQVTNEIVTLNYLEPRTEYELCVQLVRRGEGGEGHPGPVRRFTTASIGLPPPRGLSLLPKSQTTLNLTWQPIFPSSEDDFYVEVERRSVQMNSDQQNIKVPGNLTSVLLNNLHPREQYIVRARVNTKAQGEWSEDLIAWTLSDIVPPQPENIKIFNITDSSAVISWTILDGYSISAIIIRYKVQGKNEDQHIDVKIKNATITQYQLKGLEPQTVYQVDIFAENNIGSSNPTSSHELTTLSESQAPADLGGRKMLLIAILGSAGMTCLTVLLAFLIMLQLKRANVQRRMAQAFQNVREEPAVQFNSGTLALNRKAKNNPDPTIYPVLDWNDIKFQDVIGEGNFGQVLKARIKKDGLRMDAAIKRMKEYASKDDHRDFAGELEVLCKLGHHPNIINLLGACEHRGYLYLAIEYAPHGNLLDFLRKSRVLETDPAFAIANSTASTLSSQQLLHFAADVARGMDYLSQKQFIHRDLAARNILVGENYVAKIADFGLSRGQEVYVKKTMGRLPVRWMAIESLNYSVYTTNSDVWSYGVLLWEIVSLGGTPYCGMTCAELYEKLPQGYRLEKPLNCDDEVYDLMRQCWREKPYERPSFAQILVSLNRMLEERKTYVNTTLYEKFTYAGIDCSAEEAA

[3] = molecular target: T2, EHK-1 receptorbody (rEHK-1 ecto/hIgG1 Fc) (rat; human, UniProt P54757 27-575); assay: SPR (BIAcore), conditioned medium preincubated with soluble receptorbody before injection over immobilised TIE-2 RB
T2 construct: extracellular domain; also called EHK-1 RB; soluble EHK-1 RB
T2 sequence (P54757 27-575): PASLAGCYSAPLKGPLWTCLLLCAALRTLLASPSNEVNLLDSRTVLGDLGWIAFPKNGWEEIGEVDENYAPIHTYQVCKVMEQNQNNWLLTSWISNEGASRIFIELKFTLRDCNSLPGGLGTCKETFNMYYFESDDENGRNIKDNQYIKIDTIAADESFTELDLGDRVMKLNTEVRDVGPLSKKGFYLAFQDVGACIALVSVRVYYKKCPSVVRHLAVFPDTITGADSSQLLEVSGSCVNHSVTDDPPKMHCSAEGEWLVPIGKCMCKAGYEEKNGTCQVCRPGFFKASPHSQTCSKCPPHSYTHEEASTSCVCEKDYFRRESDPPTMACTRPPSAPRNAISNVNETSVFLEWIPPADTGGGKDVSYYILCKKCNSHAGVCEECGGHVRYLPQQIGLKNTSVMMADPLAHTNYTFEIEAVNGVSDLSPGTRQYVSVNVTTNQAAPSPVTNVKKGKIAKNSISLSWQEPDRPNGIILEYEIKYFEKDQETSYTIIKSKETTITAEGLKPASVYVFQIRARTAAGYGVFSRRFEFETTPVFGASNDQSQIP

- fold enhancement over background of the TIE-2 specific binding signal [1]: 4 fold
- TIE-2 tyrosine phosphorylation in ABAE cells (immunoprecipitation and Western blot) [2]: 100 fold
- binding result [3]: no binding (tested: excess)
B1: TIE-2 ligand in C2C12-ras conditioned medium (ligand, mouse, UniProt O08538 20-498, looked up)
chain: SNQRRNPENGGRRYNRIQHGQCAYTFILPEHDGNCRESATEQYNTNALQRDAPHVEPDFSSQKLQHLEHVMENYTQWLQKLENYIVENMKSEMAQIQQNAVQNHTATMLEIGTSLLSQTAEQTRKLTDVETQVLNQTSRLEIQLLENSLSTYKLEKQLLQQTNEILKIHEKNSLLEHKILEMEGKHKEELDTLKEEKENLQGLVSRQTFIIQELEKQLSRATNNNSILQKQQLELMDTVHNLISLCTKEGVLLKGGKREEEKPFRDCADVYQAGFNKSGIYTIYFNNMPEPKKVFCNMDVNGGGWTVIQHREDGSLDFQRGWKEYKMGFGNPSGEYWLGNEFIFAITSQRQYMLRIELMDWEGNRAYSQYDRFHIGNEKQNYRLYLKGHTGTAGKQSSLILHGADFSTKDADNDNCMCKCALMLTGGWWFDACGPSNLNGMFYTAGQNHGKLNGIKWHYFKGPSYSLRSTTMMIRPLDF
notes: Unpurified activity in concentrated conditioned medium; also called C2C12-ras 10xCCM
